From the supplement of paper PMC9170038

System: MS2 coat protein
Assay: apparent KD of MS2 coat protein; designed switch direction (-1 OFF switch, 1 ON switch): -1; higher = weaker reporter binding
Procedure, shortened: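 For each design, the apparent KD is the median over clusters of curves fitted to normalised cluster fluorescence. Clusters held RNA switches with common flanks, transcribed on Illumina chips by stalled E. coli RNA polymerase. These were titrated with SNAP-549-labelled MS2 coat protein, doubling from 0.7 or 1.5 nM to 3 µM, without input, with 200 uM small-molecule ligand, or with an oligonucleotide input.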

[1] = Eterna round: R95, input ligand: microRNA oligo, concentration not stated
[2] = Eterna round: R95, input ligand: FMN 200 uM
[3] = Eterna round: R95, input ligand: none
[4] = input ligand: microRNA oligo, concentration not stated

Sequence: GUGAUCUAUCAUGGGAUAAACAUGAGGAUCACCCAUGUAAACAAGUUUUUUGCUCGUCUUAUAAUAAGAUAGAUCAC [Antenna 2 - Jieux - Sensor, turn-off variant 1] (Eterna round: R97, puzzle: Sensor, turn-off variant 1)
- apparent KD of MS2 coat protein (input ligand: FMN 200 uM): 21.1 nM
- apparent KD of MS2 coat protein (input ligand: none): 20.9 nM

Sequence: GUGGAGUAAGGAUAUACAUGAGGAUCACCCAUGUGAGGGUAUGAGAAGGGAAUGAGAGGUAGAAGGUACGAGGG [JR_Exclu3_Sub070] (puzzle: Exclusion 3)
- apparent KD of MS2 coat protein [1]: 111 nM

Sequence: GUGGUGACAGGAUAUACAUGAGGAUCACCCAUGUGAGGAGGAGGAGAGAGGUGAAGGAGUAGAAGGGUCAGAGA [JR_Exclu3_Sub025] (puzzle: Exclusion 3)
- apparent KD of MS2 coat protein [2]: 102 nM
- apparent KD of MS2 coat protein [1]: 91.5 nM
- apparent KD of MS2 coat protein [3]: 106 nM

Sequence: GUGGUUCCUGUCAGGAUAUACGCGGACCACCACCUGUAGAAGGGACAUGAGGAUCACCCAUGUUUUCCAAAGCG [Eternabot (L2) Solution 80] (Eterna round: R97, puzzle: Brourd's mod of Exclusion 4)
- apparent KD of MS2 coat protein (input ligand: FMN 200 uM): 13.2 nM
- apparent KD of MS2 coat protein (input ligand: none): 13 nM

Sequence: GUGUAACUACACGGGCUCAACAUGAGGAUCACCCAUGUCAUACACGCAAGCUUUUUGCUUGUCUUAUCAGUCCGUGA [Rereerdiin] (puzzle: Sensor v3, turn-off variant 1)
- apparent KD of MS2 coat protein [2]: 13 nM
- apparent KD of MS2 coat protein [1]: 13.4 nM
- apparent KD of MS2 coat protein [3]: 11.1 nM

Sequence: GUGUACAGAGGAUAUACUUAUGGAGUUACGAAAGUAACUUCACAUGAGGAUCACCCAUGUAGAAGGCUGUACAC [Dot plot directed v10] (puzzle: Exclusion 2)
- apparent KD of MS2 coat protein [1]: 25.9 nM

Sequence: GUGUACAGAGGAUAUACUUGAAUCUAGCGAAGCUAGGUUCGACAUGAGGAUCACCCAUGUAGAAGGCUGUACAC [Dot plot directed A v2] (puzzle: Exclusion 2)
- apparent KD of MS2 coat protein [1]: 12.4 nM

Sequence: GUGUACAGAGGAUAUGCACGAGGAGUUACGAAAGUAACUUCACAUGAGGAUCACCCAUGUAGAAGGCUGUACAC [Dot plot directed v5] (puzzle: Exclusion 2)
- apparent KD of MS2 coat protein [1]: 13.9 nM

Sequence: GUGUCGUAAGGAUAUUUACCUGAGCCACUAGAGCGCUUGGAGAAGAAGGUACAUGAGGAUCACCCAUGUGGUGA [Eternabot (L2) Solution 61] (Eterna round: R97, puzzle: Exclusion 4)
- apparent KD of MS2 coat protein (input ligand: FMN 200 uM): 1430 nM
- apparent KD of MS2 coat protein (input ligand: none): 2570 nM

Sequence: GUGUGCAGAGGAUAUACAUAGUAAAAUAAAAUAUAAUAGGGACAUGAGGAUCACCCAUGUAGAAGGCUGAGUGU [Excluse me!! 23 - Jieux - Exclusion 2] (puzzle: Exclusion 2)
- apparent KD of MS2 coat protein [2]: 51.2 nM
- apparent KD of MS2 coat protein [1]: 41.7 nM
- apparent KD of MS2 coat protein [3]: 46.1 nM

Sequence: GUGUGCUGAGGAUAUACAGAGGAAGAUAAGAUAAGAUAAUCACAUGAGGAUCACCCAUGUAGAAGGCAGAGUGU [Excluse me!! 16 - Jieux - Exclusion 2] (puzzle: Exclusion 2)
- apparent KD of MS2 coat protein [1]: 27 nM

Sequence: GUGUGCUGAGGAUAUACAUAGGAAGAGAAGAGAAGAGAAGGACAUGAGGAUCACCCAUGUAGAAGGCAGAGUGU [Excluse me!! 12 - Jieux - Exclusion 2] (puzzle: Exclusion 2)
- apparent KD of MS2 coat protein [1]: 24.5 nM

Sequence: GUGUUGCGAGGAUAUAUAAGGAAAUGUUCUUAGGAUAUGGAACAUGAGGAUCACCCAUGUAGAAGGUGCAUAUC [JR_Ex2_Sub048] (Eterna round: R97, puzzle: Exclusion 2)
- apparent KD of MS2 coat protein (input ligand: FMN 200 uM): 48.1 nM
- apparent KD of MS2 coat protein (input ligand: none): 38.7 nM

Sequence: GUGUUUUAUGUAGGAUAUGCAUACUGUUAGUAUGCAGAAGGACAUGAGGAUCACCCAUGUAUAUUAUUAUUAUAUAUCAUACAU [MOD2 of Hoglahoo's Title] (Eterna round: R96, puzzle: Exclusion NG 1)
- apparent KD of MS2 coat protein (input ligand: FMN 200 uM): 98 nM
- apparent KD of MS2 coat protein [4]: 16 nM
- apparent KD of MS2 coat protein (input ligand: none): 18.9 nM

Sequence: GUUAAACAUGAGGAUCACCCAUGUAAGGAUAUGCUGCGGUCGAGAUGAAGUGACUGCAGCAGAAGGUACAAAUG [Mat - Mod of JL D60] (puzzle: Exclusion 1)
- apparent KD of MS2 coat protein [2]: 162 nM
- apparent KD of MS2 coat protein [1]: 127 nM
- apparent KD of MS2 coat protein [3]: 133 nM

Sequence: GUUAACGUAGGAUAUUAGUACAUGAACAUGAGGAUCACCCAUGUGAGGUAGGUCUUAGAAUAAGAAGGGCGAAGAA [EX5 #28] (Eterna round: R97, puzzle: Exclusion 5)
- apparent KD of MS2 coat protein (input ligand: FMN 200 uM): 124 nM
- apparent KD of MS2 coat protein (input ligand: none): 124 nM

Sequence: GUUAGUUAAGGAUAUACAGGGAGCCGCGGCGUCUCGCCGCAACAUGAGGAUCACCCAUGUAGAAGGUAGCCAUU [JL ViennaUCT Enbibi mod 1] (puzzle: Exclusion 2)
- apparent KD of MS2 coat protein [1]: 25.5 nM

Sequence: GUUAGUUAAGGAUAUACAGGGAGCUGCGGCGUCUCGCCGCAACAUGAGGAUCACCCAUGUAGAAGGUGACCUUU [JL ViennaUCT Enbibi mod 7] (puzzle: Exclusion 2)
- apparent KD of MS2 coat protein [1]: 435 nM

Sequence: GUUAUGUUAGGAUAUGCUUAUGGUGGGUGCUCAGACAUGAUGCAGAAGGGACAUGAGGAUCACCCAUGUACUGU [EX4 #19] (Eterna round: R97, puzzle: Exclusion 4)
- apparent KD of MS2 coat protein (input ligand: FMN 200 uM): 777 nM
- apparent KD of MS2 coat protein (input ligand: none): 991 nM

Sequence: GUUGUUGCGCAGGAUAUCCAGCGACUUGUCGAAGGAGAAGGGCGCACAUGAGGAUCACCCAUGUGCCUCUGUAA [EX6 B.20] (Eterna round: R97, puzzle: Exclusion 6)
- apparent KD of MS2 coat protein (input ligand: FMN 200 uM): 43 nM
- apparent KD of MS2 coat protein (input ligand: none): 18.6 nM

Sequence: GUUGUUUAUGUAGGAUAUGCCUGGCGUGCCUUUGCAGAAGGACAUGAGGAUCACCCAUGUAACAUGAGGCUCACCCAUGUCGCC [salish99_ExNG1_r04_108] (Eterna round: R96, puzzle: Exclusion NG 1)
- apparent KD of MS2 coat protein (input ligand: FMN 200 uM): 220 nM
- apparent KD of MS2 coat protein [4]: 72.6 nM
- apparent KD of MS2 coat protein (input ligand: none): 160 nM

Sequence: GUUUCACAUGAGGAUCACCCAUGUGAGGAUAUGGAUUCGCUGGCCGUAGCCAGUGGAUCCAGAAGGCGCGUGAU [JL-ex1-4.21] (Eterna round: R97, puzzle: Exclusion 1)
- apparent KD of MS2 coat protein (input ligand: FMN 200 uM): 60.5 nM
- apparent KD of MS2 coat protein (input ligand: none): 61.7 nM

Sequence: GUUUGACAUGAGGAUCACCCAUGUAAGGAUAUACGAGUAGAUACUAGAUAGUUAGUAUGUAGAAGGUACGUGUU [EX1 #64] (Eterna round: R97, puzzle: Exclusion 1)
- apparent KD of MS2 coat protein (input ligand: FMN 200 uM): 34.6 nM
- apparent KD of MS2 coat protein (input ligand: none): 43.5 nM

Sequence: GUUUGACAUGAGGAUCACCCAUGUAAGGAUAUACGAGUAGAUGAUAGAUAGAUAGUAAGUAGAAGGUACGUGUU [Translation] (Eterna round: R97, puzzle: Exclusion 1)
- apparent KD of MS2 coat protein (input ligand: FMN 200 uM): 70.6 nM
- apparent KD of MS2 coat protein (input ligand: none): 105 nM

Sequence: GUUUUCAGACGGAGAUCCUACAUGAGGAUCACCCAUGUCUCACUAGCUUUUUGCUCGUCUUAUCCUCCUCUGUUCUC [Elimod 28 - Jieux - Sensor, turn-off variant 1] (Eterna round: R97, puzzle: Sensor, turn-off variant 1)
- apparent KD of MS2 coat protein (input ligand: FMN 200 uM): 336 nM
- apparent KD of MS2 coat protein (input ligand: none): 460 nM

Sequence: GUUUUCAGACGGAGAUCCUACAUGAGGAUCACCCAUGUCUCUCUUGUUUUUUGCUCGUCUUUUCCUCCUCUGUUCUC [Elimod 32 - Jieux - Sensor, turn-off variant 1] (Eterna round: R97, puzzle: Sensor, turn-off variant 1)
- apparent KD of MS2 coat protein (input ligand: FMN 200 uM): 447 nM
- apparent KD of MS2 coat protein (input ligand: none): 515 nM

Sequence: UAAAAGCGGAAGGAUAUGUGUCUAAAGUCUGUAGCAGAAGGUCCGACAUGAGGAUCACCCAUGUGACCUGGUGC [Biatceis] (puzzle: Exclusion 6)
- apparent KD of MS2 coat protein [1]: 10.3 nM

Sequence: UAAAAGCUAGGAUAUACUGGCACACAACUCAUAAAUUCAAGACAUGAGGAUCACCCAUGUAGAAGGAGCAAAUA [EX2 A.3] (Eterna round: R97, puzzle: Exclusion 2)
- apparent KD of MS2 coat protein (input ligand: FMN 200 uM): 63.5 nM
- apparent KD of MS2 coat protein (input ligand: none): 23.6 nM

Sequence: UAAAAUAGUGUGAGGAUAUGCUGGUCCUUGGAUCAGCAGAAGGCACAUGAGGAUCACCCAUGUAGUUAAUUAUA [Mat - Exclusion 4 - JL Mod - D24] (puzzle: Brourd's mod of Exclusion 4)
- apparent KD of MS2 coat protein [1]: 36.8 nM

Sequence: UAAACAUGGAUAUAACAGUACAUGAGGAUCACCCAUGUUAAUAUGAUAGAUUAUAACAAGUUUUUUUGUCGUCUUAA [Tabletop] (Eterna round: R97, puzzle: Sensor, turn-off variant 1)
- apparent KD of MS2 coat protein (input ligand: FMN 200 uM): 85 nM
- apparent KD of MS2 coat protein (input ligand: none): 88 nM

Sequence: UAACAAAUUGUCAGGAUAUCAAUCCCGGCCCAGAUUGAGAAGGGACAUGAGGAUCACCCAUGUAUGAUUCUCAA [jl-ex4-4.51 ViennaUCT mod] (Eterna round: R97, puzzle: Brourd's mod of Exclusion 4)
- apparent KD of MS2 coat protein (input ligand: FMN 200 uM): 65.4 nM
- apparent KD of MS2 coat protein (input ligand: none): 31.9 nM

Sequence: UAACUGUGAGGAUAUUCGUAGUACACGGAGACGUGUAUUACGGAGAAGGCACAUGAGGAUCACCCAUGUUCCUU [Default title] (Eterna round: R97, puzzle: Exclusion 4)
- apparent KD of MS2 coat protein (input ligand: FMN 200 uM): 75.6 nM
- apparent KD of MS2 coat protein (input ligand: none): 17.4 nM

Sequence: UAACUUCUUGUAAGGAUAUCGGCGCGAAAGCGCAACGAGAAGGUACAUGAGGAUCACCCAUGUGAAAUAAGAAU [Mod of Zala 12 - Jieux - Brourd's Mod of Exclusion 4] (Eterna round: R97, puzzle: Brourd's mod of Exclusion 4)
- apparent KD of MS2 coat protein (input ligand: FMN 200 uM): 104 nM
- apparent KD of MS2 coat protein (input ligand: none): 28.3 nM

Sequence: UAAGAAGGUGUUAGGAUAUGCAGAGCAGGGCUAAGGCAGAAGGGACAUGAGGAUCACCCAUGUGCUACGGGUGC [Enrainbera] (puzzle: Brourd's mod of Exclusion 4)
- apparent KD of MS2 coat protein [2]: 51.2 nM
- apparent KD of MS2 coat protein [1]: 37.2 nM
- apparent KD of MS2 coat protein [3]: 35.9 nM

Sequence: UAAGAGUGAGGAUAUACGUCGCUGGUCGGGAUGGACGCAUGACAUGAGGAUCACCCAUGUAGAAGGCACAAAAC [Enxela Mod 10 - Jieux - Exclusion 2] (Eterna round: R97, puzzle: Exclusion 2)
- apparent KD of MS2 coat protein (input ligand: FMN 200 uM): 87.6 nM
- apparent KD of MS2 coat protein (input ligand: none): 25.4 nM
